According to publication PMC10487539, “Glutaryl-CoA Dehydrogenase Misfolding in Glutaric Acidemia Type 1” (International Journal of Molecular Sciences, 2023):
Changes are numbered by the printed parent chain. In names and notes the source's numbering stands.

B1: recombinant human glutaryl-CoA dehydrogenase, wild type, MBP fusion (enzyme)
chain: RPEFDWQDPLVLEEQLTTDEILIRDTFRTYCQERLMPRILLANRNEVFHREIISEMGELGVLGPTIKGYGCAGVSSVAYGLLARELERVDSGYRSAMSVQSSLVMHPIYAYGSEEQRQKYLPQLAKGELLGCFGLTEPNSGSDPSSMETRAHYNSSNKSYTLNGTKTWITNSPMADLFVVWARCEDGCIRGFLLEKGMRGLSAPRIQGKFSLRASATGMIIMDGVEVPEENVLPGASSLGGPFGCLNNARYGIAWGVLGASEFCLHTARQYALDRMQFGVPLARNQLIQKKLADMLTEITLGLHACLQLGRLKDQDKAAPEMVSLLKRNNCGKALDIARQARDMLGGNGISDEYHVIRHAMNLEAVNTYEGTHDIHALILGRAITGIQAFTASK
notes: glutaryl-CoA dehydrogenase (GCDH), human cDNA in pMAL-c2X; the precursor has 438 amino acids and the first 44 are cut on mitochondrial import; No cleavage of MBP is described; The printed masses (tetramer 173.2 kDa) count without MBP; also called GCDH; WT; not shown: MBP, N-terminal, kept
B2: recombinant human GCDH variant A421V, MBP fusion (enzyme)
chain: B1 chain with A377V
notes: glutaryl-CoA dehydrogenase (GCDH), human cDNA in pMAL-c2X, patient variant; No cleavage of MBP is described; also called c.1262C > T; not shown: MBP, N-terminal, kept
B3: recombinant human GCDH variant V400M, MBP fusion (enzyme)
chain: B1 chain with V356M
notes: glutaryl-CoA dehydrogenase (GCDH), human cDNA in pMAL-c2X, patient variant; No cleavage of MBP is described; also called c.1198G > A; not shown: MBP, N-terminal, kept
B4: recombinant human GCDH variant R227P, MBP fusion (enzyme)
chain: B1 chain with R183P
notes: glutaryl-CoA dehydrogenase (GCDH), human cDNA in pMAL-c2X, patient variant; No cleavage of MBP is described; also called c.680G > C; source: could not be purified by size-exclusion chromatography; not shown: MBP, N-terminal, kept
B5: recombinant human GCDH variant R138G, MBP fusion (enzyme)
chain: B1 chain with R94G
notes: glutaryl-CoA dehydrogenase (GCDH), human cDNA in pMAL-c2X, patient variant; No cleavage of MBP is described; also called c.412A > G; not shown: MBP, N-terminal, kept
B6: recombinant human GCDH variant A433V, MBP fusion (enzyme)
chain: B1 chain with A389V
notes: glutaryl-CoA dehydrogenase (GCDH), human cDNA in pMAL-c2X, patient variant; No cleavage of MBP is described; also called c.1298C > T; not shown: MBP, N-terminal, kept
B7: recombinant human GCDH variant A433E, MBP fusion (enzyme)
chain: B1 chain with A389E
notes: glutaryl-CoA dehydrogenase (GCDH), human cDNA in pMAL-c2X, patient variant; No cleavage of MBP is described; also called c.1298C > A; not shown: MBP, N-terminal, kept
B8: recombinant human GCDH variant E414K, MBP fusion (enzyme)
chain: B1 chain with E370K
notes: glutaryl-CoA dehydrogenase (GCDH), human cDNA in pMAL-c2X, patient variant; No cleavage of MBP is described; also called c.1240G > A; not shown: MBP, N-terminal, kept
B9: recombinant human GCDH variant R88C, MBP fusion (enzyme)
chain: B1 chain with R44C
notes: glutaryl-CoA dehydrogenase (GCDH), human cDNA in pMAL-c2X, patient variant; No cleavage of MBP is described; also called c.262C > T; not shown: MBP, N-terminal, kept
B10: recombinant human GCDH variant M263V, MBP fusion (enzyme)
chain: B1 chain with M219V
notes: glutaryl-CoA dehydrogenase (GCDH), human cDNA in pMAL-c2X, patient variant; No cleavage of MBP is described; also called c.787A > G; not shown: MBP, N-terminal, kept

Tests used:
[1] = biological target: the molecule itself; assay: SEC; self-association; MBPTrap eluate on HiLoad 16/600 Superdex 200, 20 mM HEPES pH 7.0, 200 mM NaCl, 4 °C; higher oligomers or aggregates 45-55 mL, tetramers 65-75 mL, dimers 75-85 mL, monomers 85-95 mL
[2] = biological target: the molecule itself; assay: native gel or EMSA; self-association; BN-PAGE and Western blot of proteins purified by affinity chromatography; bands of monomer, dimer and tetramer as percent of total
[3] = biological target: the molecule itself; assay: SEC; self-association; as a1 but in 10 mM potassium phosphate buffer with 10% glycerol (used for A433V only), 4 °C

| Protein | binding result [1] | binding result [2] | also measured |
| --- | --- | --- | --- |
| B1 | – | – | stoichiometry N [1]: 4 |
| B2 | binds | – | – |
| B3 | – | binds | – |
| B4 | – | binds | – |
| B5 | – | binds | – |
| B6 | – | – | binding result [3]: binds |
| B7 | binds | – | – |
| B8 | binds | – | – |
| B9 | binds | – | – |
| B10 | – | binds | – |
